Experiment: yeast display, Sf9 membrane polyspecificity reagent, FACS + sequencing; frameworks hold sequencing errors
Summary of the method: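 Nanobodies came from a synthetic yeast display library in Saccharomyces cerevisiae BJ5465, induced with galactose for 36–48 hours and stained for 1 hour at 4 °C with 10% biotinylated, detergent-solubilized Sf9 membrane reagent. Cells were enriched on streptavidin microbeads and then FACS-sorted, with low and high (top ~1%) gates set on anti-HA fluorescence for expression and streptavidin fluorescence for reagent binding. Each polyreactivity label reflects the gate a clone came from. Genes were amplified by colony PCR, sequenced by MiSeq 2 × 250 and filtered by CDR length.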

| Sequence | polyreactivity (PSR sort gate) |
| --- | --- |
| QVQLVESGGGLVQAGGSLRLSCAASGLIFFYYAMGWYRQAPGKERELVATINLNGGSTYYADSVKGRFTISRDNAKNSVYLQMNSLKPEDTAGYYCAAAGTKYYARYYYWGQGTQVTVSS | high polyreactivity |
| QVQLVESGGGLVQAGGSLRLSCAASGNNFYNNAMGWYRQAPGKERELVATISRRGGRTYYADSVKGRFTISRDNAKNTVYLQMNSLKPEDTSVYYCNARFHGDYDYWGQGTQVTVSS | high polyreactivity |
| QVQLVESVVGLVQAGGSLRVSCAAYGRTFWYYPMGWYRQAPGKERELVAGITFTGGRTYYADSVKGRFTISRDNAKHTVYLQMNSLKPEDTAVYYCAAAGLVVGRKDRDGYWGLGTQVTVSS | low polyreactivity |
| QVQLVESGGGLVQAGGSLRLSCAASGSTLIRNDMGWYRQAPAKERELVAAINTRGTTTYYADSVKGRFTISRDNAKNTVYLQMNSLKPEDTAVYYCAAYAYSAYSPDGQRSRYYYWGQGTQVTVSS | high polyreactivity |
| QVQLVESGGGLVQAGGSLRLSCAASGRIFRSYALGWYRQAPGKERELVAAISSSDGSTYYADSVKGRFTISRDNAKNTVYLQMNSLKPEDTAVYYCNAEQVCYTYGRYPEWYLYGYWGQGTQVTVSS | low polyreactivity |
| QVQLVESGGGLVQAGGSLRLSCAASGSIFLYNAMGWYRQAPGKERELVAAISSSSDRTYYADSVKGRFTISRDNAKNTVYLQMNSLKPEDTAVYYCNVVYIGWRKYEYWGQGTQVTVSS | high polyreactivity |
| QVQLVESGGGLVQAGGSLRLSCAASGRTFYKYGRGWYRQAPRKERELVASISSGGNTYYADSVKGRFTISRDNAKHTVYLQMNSLKPDASAVFYCAAVNYWPFYYYVYGYWGQGTQVTVSS | high polyreactivity |
| QVQLVESGGGLVQAGGSLRLSCAASGRTIYRNAMGWYRQAPGKERELVAAITSGGSTNYADSVKGRFTLSRDNAKNTGYLQMNSLKPEDTAVYYCAATRGRYLWYYRYDYWGQGTQVTVSS | high polyreactivity |
| QVQLVESGGGLVQAGGSISLSCAASGFIFDDNAMGCYRQAPGKERELVAAISQGAGRTYYADSVKGRFTISRDNAKNTVYLQMNSVKPEDTAVYYCNSGRPKYWYGSKYDYWGQGTQVTVSS | low polyreactivity |
| QVQLVESGGGLVHAGGSIRLSCAASGRTFAYNDMGWYTQAPGTERELVAAISWSDGTTYYADSVKGRFTISRDNAKNPVYLQMHCLKPEDTAVYYCAAESYPSEVASYVSEYDYWGQGTQVTVSS | low polyreactivity |
| QVQLVETGGGLVQAGGSLRLSSAASGSTFRDYDMGWYRQARGKERELVAAISLSGGRTHYADSVKGRFTISRDNAKNTVYLQMNSLKPEDTAVYYCAARNSGPVQYYYWGQGTHVTVSS | low polyreactivity |
| QVQLVESGVGLVQAGGSLRLSCAASGRIFATNAMGWYRQAPGKERELVATITRSAGRTYYADSVKGRFTISRDNAKNTVYLQMNSLKPEDTAVYYCAASYWDTEPGYREYDYWGQGTQVTVSS | low polyreactivity |
| QVQLVESGGGLVQAGGSLRLSCAASGSNFYYKAMGWYRQAPGKERELVAAITSGDSTNYADSVKGRFTISRDNAKNTVYLQMNSLKPEDTAVYYCAADYLAALTYYRTYDYWGQGTQVTVSS | low polyreactivity |
| QVQLVESGGGLVQAGGSLRLSCAASGFTFRYYAMGWDRQAPGKERDWVAAITRRGGSTYYSDSVKGRFTISRDNAKNTVYLLMNSLKPEDTAVYYCAASLWTTSADYDYWGQGTQVTVSS | high polyreactivity |
| QVQLVESGGGLVQAGGSLRLSCAASGIIFYQNTMGWYRQAPGKERELVATITKRGGSTYYADSVKGRFTISRDNAKNTVYLQMNSLKPEDTAVYYCNAAKYAASYIGYGYWGQGTQVTVSS | high polyreactivity |
| QVQLVESGGGLVQAGGSLRLTCAASGSIFVNNAMGWYRQAPGKERELVAAISSRSSRTFYADSVKGRFTISRDNAKNTVYLQMNSLKPEDTAVYYCAVKKRAPDGDYWGQGTQVTVSS | high polyreactivity |

| Sequence | polyreactivity (PSR sort gate) |
| --- | --- |
| QVQLVESGGGVVQAGGSLRLSSAASGYIFRAYAMGWYRQAPGKERELVAAISSRGGSTYFADSVKGRFTISRDNAKNTVYLQMNSLKPEDTAVYYCAAAYRQPYIGYGYWGQGTQVTVSS | high polyreactivity |
| QVQLVESGGGLVQAGGSLRLSCAASGFIFDGYTMGWYRQAPGKERELVAAITTSGTSTYYADSVKGRFTISRDNAKNTVYLQMNSLKPEDTADYYCAARQYRHRVKYYYWGQGTQVTVSS | high polyreactivity |
| QVQLVESGGGLVQAGGSLRLSCAASGRIFGPYVMGWYRQAPGKERELVAAISTSGTSTYYADSVKGRFTISRDNAKNTVYLQMNSLKPEDTAVYDCGIRSGARHRLMDYWGQGTQVTVSS | low polyreactivity |
| QVQLVESGGGLVQAGGSLRLSCAASGFTLYSNTMGWYRQAPGKERELVAAINYSGGSTYYADSVKGRFTISRDNAKNTVYLQMNSLKPQDTAVYYCATDLHWLVTKYGYWGQGTQVTVSS | low polyreactivity |
| QVQLVESGGGLVQAGGSLRLSCAAYGFIFWYYDMGWYRQAPGKETELVAGITSGGSTNYEDSVKGRFTISRDNATNTVYLQMNRLKPEDTAVYYCAATYYGYHIRDDYWGQGTLVTVSS | low polyreactivity |
| QVQLVESGGGLVQAGGSLRLSCAASGSTFYDYAMGWYRQAPGKERELVAAISRGGSTYYADCVKGRFTISRDNAKNTVYLQMNSLKPEDTAVYYCAAGRSYDSGFYYWGQGTQVTVSS | low polyreactivity |
| QVQLVESGGGLDQAGGSLRLSCAASGRTFSYYAMGWYRQAPVKERELVAGISWRGTSTYADSVKGRFTISRDNAKNTFYLQMNRLKPEHTAVYYCNAEVTGHYSYHKFDYWGQGTQVTVSS | low polyreactivity |
| QVQLVESGGGLVQAGGSLRLSGAASGRTFRKYAMGWYRQAPGKERELVAAISWSGGSTYYANSVKGRFTISRDNAKNTVYLQMNSLKPEDTAVYYCAAVPVHTGSLYWGFTTGYDYWGQGTQVTVSS | low polyreactivity |
| QVQLVESGGGLVQAGGSLRLSCAASGRIYGDYAMGWYRQAPGKERELVARITWSGTGTYYADSVKGRFTISRDNAKNTVYLQMNSLKPEDTAVYYCNADWQVKWYYYWGQVTQVTVSS | low polyreactivity |
| QVQLVESGGGLVQAGGSLRLSCAASGFIFYSYTMVWYRQAPGKERELVASISRRGGITYYADSVKGRFTISRDNAKNTVYLQMNILIPEDTAVFYCAAYSWRRQGDHYDYWGQGTKVTVSS | high polyreactivity |
| QLQLVESGGGLVQAGGSLRLSCAASGFIFDSYAMGWYRQAPGKERELVAAISWSGSSTYYADSVKGRFTISRDNAKNTVFLQMNSLKPEDTAVYYCGALVYPYWGGSMYYWGQGTQVTVSS | high polyreactivity |
| QVQLVESGGGLVQAGGILRLSCAASGRTFGINAMGWYRQAPGKERELVARIRKTVGSTYYADSVKGRFTISRDNAKNTVYLQMNSLKPEDTAVYYCAADLRYGYLYPYDSWGQGTQVTVSS | high polyreactivity |
| QVQLVESGGGLVQAGGSLRLSCAASGRTFNIYAMGWYRQEPGKERELVAAITNNGGRTYYADSVKGRFTISRDNAKNTVYLQMNSLKPEDTAVYYCAAASPWRYGFEYWGQGTQVTVSS | high polyreactivity |
| QVQLQESGGGLVQAGGSLRLSCAASGSNFDTPTMGWYRQAPGKERELVASIAYDDNTYYADSVKGRFTISRYNAKNTVYLQMNSLKPGETAVYYCAVTDRIYYYFVYWGQGTRVTVSS | high polyreactivity |
| QVQLVESVGGLVQAGGRLRLSCAASGSTFAFNAMGWSRQAPGKEREFVAVISYRTDNTYYADSVKGRFTISRDNAKNTVYLQMNSLKPEDTAVYYCAAASSYSKKPYYSYGYWGQGTQVTVSS | high polyreactivity |

— the nanobody polyreactivity screen of Harvey et al. (2022)
